In patent publication US20230279151A1:

Molecular target: human IL13 (IL012, Millipore) (human) (UniProt P35225)
Experiment: SPR, Biacore 3000, antibody captured by anti-human Fc, IL13 as analyte; HEK293-FS expression

Chain of human IL13 (IL012, Millipore) (human) (P35225 35-146 limits assumed): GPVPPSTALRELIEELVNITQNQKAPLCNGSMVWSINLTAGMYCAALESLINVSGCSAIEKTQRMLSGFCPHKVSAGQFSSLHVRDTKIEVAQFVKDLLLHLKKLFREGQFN

Kd: 0.0888 nM
koff: 4.52e-05 s⁻¹
kon: 508000 M⁻¹ s⁻¹
B1: anti-IL13 mAb ctrl (antibody, from a related filing, V domains shown)
VH: EVQLKESGPGLVAPGGSLSITCTVSGFSLTDSSINWVRQPPGKGLEWLGMIWGDGRIDYADALKSRLSISKDSSKSQVFLEMTSLRTDDTATYYCARDGYFPYAMDFWGQGTSVTVSS
VL: DIVLTQSPASLAVSLGQRATISCRASESVDSYGQSYMHWYQQKAGQPPKLLIYLASNLESGVPARFSGSGSRTDFTLTIDPVQAEDAATYYCQQNAEDSRTFGGGTKLEIK
